Data as given in patent EP4674438A1, “ANTIBODY-DRUG CONJUGATE CONTAINING ANTI-CD138 ANTIBODY” (priority 2023, dated 2024).

Assays:
[1] = target: T1, human CD138 protein (human, UniProt P18827 23-310); assay: cell-based or functional assay
T1 sequence: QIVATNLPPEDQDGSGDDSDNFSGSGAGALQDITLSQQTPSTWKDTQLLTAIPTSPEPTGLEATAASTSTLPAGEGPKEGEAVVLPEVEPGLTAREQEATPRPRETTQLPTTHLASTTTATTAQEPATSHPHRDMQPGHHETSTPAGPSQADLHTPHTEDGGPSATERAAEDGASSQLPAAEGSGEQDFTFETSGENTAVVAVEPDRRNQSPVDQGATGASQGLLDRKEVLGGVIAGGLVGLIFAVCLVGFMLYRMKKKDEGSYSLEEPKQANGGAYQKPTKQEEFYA

[2] = target: T1, human CD138 protein; assay: flow cytometry on AsPC-1 cells, 0.001 to 100 ug/ml, anti-human IgG Fc-APC
[3] = target: T1, human CD138 protein; assay: flow cytometry on AsPC-1 cells (legend of Figure 1)

B1: Antibody-drug conjugate 3 (ADC3) (antibody, V domains shown)
VH: QVQLQQSGSELMMPGASVKISCKATGYTFSNYWIEWVKQRPGHGLEWIGEILPGTGRTIYNEKFKGKATFTADISSNTVQMQLSSLTSEDSAVYYCARRDYYGNFYYAMDYWGQGTLVTVSS
VL: DIQMTQSTSSLSASLGDRVTISCSASQGINNYLNWYQQKPDGTVELLIYYTSTLQSGVPSRFSGSGSGTDYSLTISNLEPEDIGTYYCQQYSKLPRTFGGGTKLEIKR
modifications: MC-VC-PAB-MMAE on cysteine sulfhydryls after TCEP reduction of hinge disulfide bonds; positions not given; DAR 7.1
[1]
  IC50 (ng/ml), cytotoxicity, Capan-1 (CD138-positive), CellTiter-Glo 2.0: 13 ng/mL

B2: Antibody-drug conjugate 4 (ADC4) (antibody, human IgG1, kappa, V domains shown)
VH: B1 VH
VL: B1 VL
modifications: MC-VC-PAB-MMAF on cysteine sulfhydryls after TCEP reduction of hinge disulfide bonds; positions not given; DAR 2.2
[1]
  IC50 (ng/ml), cytotoxicity, Capan-1 (CD138-positive), CellTiter-Glo 2.0: 165 ng/mL

B3: Antibody-drug conjugate 10 (ADC10) (antibody, human IgG1, kappa, L234A L235A, V domains shown)
VH: QVQLVQSGAEVKKPGSSVKVSCKASGYTFSNYWIEWVRQAPGQGLEWIGEILPGTGRTIYNEKFKGRATFTADESTSTAYMELSSLRSEDTAVYYCARRDYYGNFYYAMDYWGQGTLVTVSS
VL: DIQMTQSPSSLSASVGDRVTITCSASQGINNYLNWYQQKPGKAPKLLIYYTSTLQSGVPSRFSGSGSGTDYTLTISSLQPEDFATYYCQQYSKLPRTFGGGTKVEIKR
modifications: MC-VC-PAB-MMAE on cysteine sulfhydryls after TCEP reduction of hinge disulfide bonds; positions not given; DAR 7.8
[1]
  IC50 (ng/ml), cytotoxicity, Capan-1 (CD138-positive), CellTiter-Glo 2.0: 29 ng/mL

B4: Antibody 1 (antibody, V domains shown)
VH: B1 VH
VL: B1 VL
notes: expressed in HEK293 cells; Same light chain as Antibody 2 (nBT062); also called anti-CD138 antibody
[2]
  binding result: binds

B5: Antibody 5 (antibody, human IgG1, kappa, L234A L235A, V domains shown)
VH: B3 VH
VL: B3 VL
notes: Humanized; also called anti-CD138 antibody
[3]
  binding result: binds
